To fix the notation:
B3: RIPK2^1−300 (domain or fragment, human, UniProt O43353 1-300, looked up)
chain: MNGEAICSALPTIPYHKLADLRYLSRGASGTVSSARHADWRVQVAVKHLHIHTPLLDSERKDVLREAEILHKARFSYILPILGICNEPEFLGIVTEYMPNGSLNELLHRKTEYPDVAWPLRFRILHEIALGVNYLHNMTPPLLHHDLKTQNILLDNEFHVKIADFGLSKWRMMSLSQSRSSKSAPEGGTIIYMPPENYEPGQKSRASIKHDIYSYAVITWEVLSRKQPFEDVTNPLQIMYSVSQGHRPVINEESLPYDIPHRARMISLIESGWAQNPDERPSFLKCLIELEPVLRTFEEI
modifications: labelled with the Monolith Protein labelling kit RED-NHS second generation (primary amines) for MST only
notes: RIPK2, human, kinase domain, residues 1-300; also called kinase domain of RIPK2 (residues 1–300); source: sf21 insect cells (baculovirus), purified (amylose resin, TEV cleavage, anion exchange)
B9: RIPK2^1−317 (domain or fragment, human, UniProt O43353 1-317, looked up)
chain: MNGEAICSALPTIPYHKLADLRYLSRGASGTVSSARHADWRVQVAVKHLHIHTPLLDSERKDVLREAEILHKARFSYILPILGICNEPEFLGIVTEYMPNGSLNELLHRKTEYPDVAWPLRFRILHEIALGVNYLHNMTPPLLHHDLKTQNILLDNEFHVKIADFGLSKWRMMSLSQSRSSKSAPEGGTIIYMPPENYEPGQKSRASIKHDIYSYAVITWEVLSRKQPFEDVTNPLQIMYSVSQGHRPVINEESLPYDIPHRARMISLIESGWAQNPDERPSFLKCLIELEPVLRTFEEITFLEAVIQLKKTKLQSV
notes: Incubated with nucleotide (ATP or AMPPCP) and MgCl2 before XIAP BIR2 was added; ATP-MgCl2 is said to promote full phosphorylation; Antiparallel dimer in the complex; also called RIPK2 kinase; RIPK2 wt; source: sf21 insect cells (baculovirus), purified (amylose resin, TEV cleavage, anion exchange)

Several values for one entry are separate records, joined by “and”; a condition that tells them apart may be missing. Equal values may be shown once.

Series [1] deals with T1, RIPK2^1−300 (human, UniProt O43353 1-300, labelled with the Monolith Protein labelling kit RED-NHS second generation (primary amines) for MST only).
T1 chain: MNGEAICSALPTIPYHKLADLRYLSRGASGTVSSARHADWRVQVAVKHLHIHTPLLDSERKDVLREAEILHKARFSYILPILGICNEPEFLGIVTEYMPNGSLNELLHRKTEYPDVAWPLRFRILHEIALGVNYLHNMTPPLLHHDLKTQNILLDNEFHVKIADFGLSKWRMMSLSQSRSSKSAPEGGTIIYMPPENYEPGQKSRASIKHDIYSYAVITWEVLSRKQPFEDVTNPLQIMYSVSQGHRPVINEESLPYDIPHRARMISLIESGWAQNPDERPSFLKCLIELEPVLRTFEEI
Description: MST.

Series [2] has as its target B3. Kind of series: MST; RIPK2 1-300 labelled with RED-NHS at 20 nM final, XIAP BIR2 constructs titrated from 1.2-2,500 nM; 20 mM Hepes pH 7.5, 150 mM NaCl, 2% glycerol, 0.05% Tween-20; 20°C; one-site binding model, triplicates. To be noted: both partners purified.
Series [3] deals with the molecule itself. Kind of series: native MS; complex fractions reapplied on Superdex 200 10/300 increase in 250 mM ammonium acetate with 1 mM DTT; concentration range of 10 μM.
For series [4], the target named is B3. The description is as above. To be noted: both partners purified.
The target in series [5] is B9. Described as above. To be noted: both partners purified.
For series [6], the target named is B9. Kind of series: cryo-EM structure; single-particle cryo-EM of the SEC-purified RIPK2 1-317-XIAP BIR2 154-240 complex, Titan Krios 300 keV, untilted and tilted data, 3.15 Å. To be noted: both partners purified.
Series [7] deals with the molecule itself. Kind of series: SEC; RIPK2 1-317 wt or mutant with 500 μM ATP and 5 mM MgCl2 on ice, XIAP BIR2 154-240 added in excess (1:2), Superdex 200 3.2/300 increase in buffer C; fractions on SDS-PAGE.

B1: XIAP BIR2^93−240 (domain or fragment, human)
chain: GPINGFYLENSATQSTNSGIQNGQYKVENYLGSRDHFALDRPSETHADYLLRTGQVVDISDTIYPRNPAMYSEEARLKSFQNWPDYAHLTPRELASAGLYYTGIGDQVQCFCCGGKLKNWEPCDRAWSEHRRHFPNCFFVLGRNLNIRSE
notes: two additional residues after the P3C cleavage site; XIAP, human, residues 93-240; source: E. coli Rosetta 2, purified (glutathione sepharose, P3C cleavage, SEC); not shown: GST, N-terminal, cleaved
The molecule B1 returned a Kd in series [1] of 92.9 nM. In addition, the binding result in series [2] is “binds”.

B2: XIAP BIR2^93−263 (domain or fragment, human)
chain: GPINGFYLENSATQSTNSGIQNGQYKVENYLGSRDHFALDRPSETHADYLLRTGQVVDISDTIYPRNPAMYSEEARLKSFQNWPDYAHLTPRELASAGLYYTGIGDQVQCFCCGGKLKNWEPCDRAWSEHRRHFPNCFFVLGRNLNIRSESDAVSSDRNFPNSTNLPRNPSMA
notes: two additional residues after the P3C cleavage site; XIAP, human, residues 93-263; source: E. coli Rosetta 2, purified (glutathione sepharose, P3C cleavage, SEC); not shown: GST, N-terminal, cleaved
With B2, the binding result in series [2] was “binds”.
Take B3: the “stoichiometry N” value in series [3] is 2 molecules of RIPK2.

B4: XIAP BIR2^124–240 (domain or fragment, human)
chain: GPRDHFALDRPSETHADYLLRTGQVVDISDTIYPRNPAMYSEEARLKSFQNWPDYAHLTPRELASAGLYYTGIGDQVQCFCCGGKLKNWEPCDRAWSEHRRHFPNCFFVLGRNLNIRSE
notes: two additional residues after the P3C cleavage site; XIAP, human, linker region (124-154) and BIR2 domain, residues 124-240; also called long BIR2 construct; source: E. coli Rosetta 2, purified (glutathione sepharose, P3C cleavage, SEC); not shown: GST, N-terminal, cleaved
In the case of B4, the “stoichiometry N” value in series [4] was 1 RIPK2 per XIAP BIR2 (printed as the ratio 2:2) and 2 RIPK2 per XIAP BIR2 (printed as the ratio 2:1). The Kd in series [1] stood at 85.9 nM.

B5: XIAP BIR2AG^124–240 (domain or fragment, human)
chain: GPRDHFALDRPSETHADYLLRTGQVVDISDTIYPRNPAMYSEEARLKSFQNWPDYAHLTPRELASAGLYYTGIGDQVQCFACGGKLKNWEPGDRAWSEHRRHFPNCFFVLGRNLNIRSE
notes: two additional residues after the P3C cleavage site; XIAP, human, residues 124-240 with the AG mutations C202A and C213G; For NMR uniformly 15N- or 13C/15N-labelled (M9 medium); also called AG construct (long); ^15N-labeled XIAP BIR2; source: E. coli Rosetta 2, purified (glutathione sepharose, P3C cleavage, SEC); not shown: GST, N-terminal, cleaved
For B5, the “stoichiometry N” value in series [5] is 1 RIPK2 per XIAP BIR2 (printed as the ratio 2:2).

B6: XIAP BIR2^124−263 (domain or fragment, human)
chain: GPRDHFALDRPSETHADYLLRTGQVVDISDTIYPRNPAMYSEEARLKSFQNWPDYAHLTPRELASAGLYYTGIGDQVQCFCCGGKLKNWEPCDRAWSEHRRHFPNCFFVLGRNLNIRSESDAVSSDRNFPNSTNLPRNPSMA
notes: two additional residues after the P3C cleavage site; XIAP, human, residues 124-263; source: E. coli Rosetta 2, purified (glutathione sepharose, P3C cleavage, SEC); not shown: GST, N-terminal, cleaved
In the case of B6, binding in series [1] was put at a Kd of 142 nM. For the same molecule, the binding result in series [2] is reported as “binds”.

B7: XIAP BIR2^154–240 (domain or fragment, human, UniProt P98170 154-240, looked up)
chain: YPRNPAMYSEEARLKSFQNWPDYAHLTPRELASAGLYYTGIGDQVQCFCCGGKLKNWEPCDRAWSEHRRHFPNCFFVLGRNLNIRSE
notes: Plasmid pET49, a gift from Katrin Rittinger; also called short BIR2 construct; source: E. coli Rosetta 2, purified (glutathione sepharose, P3C cleavage, SEC); not shown: GST, N-terminal, cleaved
With B7, the figures for the “stoichiometry N” value in series [5] and in series [6] were 1 RIPK2 per XIAP BIR2 (printed as the ratio 2:2) and 2 RIPK2 per XIAP BIR2 (printed as the ratio 2:1), respectively. Also, the Kd in series [2] amounted to 85.6 ± 18.7 nM.

B8: XIAP BIR2AG^154–240 (domain or fragment, human, UniProt P98170 154-240, looked up)
chain: YPRNPAMYSEEARLKSFQNWPDYAHLTPRELASAGLYYTGIGDQVQCFACGGKLKNWEPGDRAWSEHRRHFPNCFFVLGRNLNIRSE
notes: XIAP, human, BIR2 domain, residues 154-240 with the AG mutations C202A and C213G; Plasmid pET49, a gift from Katrin Rittinger; also called AG construct (short); source: E. coli Rosetta 2, purified (glutathione sepharose, P3C cleavage, SEC); not shown: GST, N-terminal, cleaved
As for B8, the “stoichiometry N” value in series [5] is 2 RIPK2 per XIAP BIR2 (printed as the ratio 2:1) and 1 RIPK2 per XIAP BIR2 (printed as the ratio 2:2).
Take B9: in series [3], the “stoichiometry N” value is 2 molecules of RIPK2.

B10: RIPK2^1−317 K209A (domain or fragment, human, UniProt O43353 1-317, looked up)
chain: MNGEAICSALPTIPYHKLADLRYLSRGASGTVSSARHADWRVQVAVKHLHIHTPLLDSERKDVLREAEILHKARFSYILPILGICNEPEFLGIVTEYMPNGSLNELLHRKTEYPDVAWPLRFRILHEIALGVNYLHNMTPPLLHHDLKTQNILLDNEFHVKIADFGLSKWRMMSLSQSRSSKSAPEGGTIIYMPPENYEPGQKSRASIAHDIYSYAVITWEVLSRKQPFEDVTNPLQIMYSVSQGHRPVINEESLPYDIPHRARMISLIESGWAQNPDERPSFLKCLIELEPVLRTFEEITFLEAVIQLKKTKLQSV
notes: Incubated with 500 μM ATP and 5 mM MgCl2 before XIAP BIR2 was added; also called RIPK2–K209A (recombinant); source: sf21 insect cells (baculovirus), purified as RIPK2 wt
Turning to B10, the binding result in series [7] is listed as “binds”.

B11: RIPK2^1−317 S282L (domain or fragment, human, UniProt O43353 1-317, looked up)
chain: MNGEAICSALPTIPYHKLADLRYLSRGASGTVSSARHADWRVQVAVKHLHIHTPLLDSERKDVLREAEILHKARFSYILPILGICNEPEFLGIVTEYMPNGSLNELLHRKTEYPDVAWPLRFRILHEIALGVNYLHNMTPPLLHHDLKTQNILLDNEFHVKIADFGLSKWRMMSLSQSRSSKSAPEGGTIIYMPPENYEPGQKSRASIKHDIYSYAVITWEVLSRKQPFEDVTNPLQIMYSVSQGHRPVINEESLPYDIPHRARMISLIESGWAQNPDERPLFLKCLIELEPVLRTFEEITFLEAVIQLKKTKLQSV
notes: Incubated with 500 μM ATP and 5 mM MgCl2 before XIAP BIR2 was added; also called RIPK2–S282L (recombinant); source: sf21 insect cells (baculovirus), purified as RIPK2 wt
Regarding B11, the binding result in series [7] is recorded as “binds”.

B12: RIPK2^1−317 K209R (domain or fragment, human, UniProt O43353 1-317, looked up)
chain: MNGEAICSALPTIPYHKLADLRYLSRGASGTVSSARHADWRVQVAVKHLHIHTPLLDSERKDVLREAEILHKARFSYILPILGICNEPEFLGIVTEYMPNGSLNELLHRKTEYPDVAWPLRFRILHEIALGVNYLHNMTPPLLHHDLKTQNILLDNEFHVKIADFGLSKWRMMSLSQSRSSKSAPEGGTIIYMPPENYEPGQKSRASIRHDIYSYAVITWEVLSRKQPFEDVTNPLQIMYSVSQGHRPVINEESLPYDIPHRARMISLIESGWAQNPDERPSFLKCLIELEPVLRTFEEITFLEAVIQLKKTKLQSV
notes: Incubated with 500 μM ATP and 5 mM MgCl2 before XIAP BIR2 was added; also called RIPK2–K209R (recombinant); source: sf21 insect cells (baculovirus), purified as RIPK2 wt
B12: the binding result in series [7] is “binds”.

The values above are taken from article PMC10485824 (Life Science Alliance, 2023).
